# Test results taken from the nanobody polyreactivity screen of Harvey et al. (2022).
# Experiment: yeast display, Sf9 membrane polyspecificity reagent, FACS + sequencing; frameworks hold sequencing errors
# Summary of the method: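 Sorting gates, low and high (top ~1%), were placed on anti-HA fluorescence to track expression and on streptavidin fluorescence to track reagent binding. A clone's polyreactivity label is taken from the gate it came out of. The reagent was 10% biotinylated, detergent-solubilized Sf9 membrane, applied for 1 hour at 4 °C to galactose-induced yeast display cells.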
row,Sequence,polyreactivity (PSR sort gate)
1,QVQLVESGGGLLQAGGSLRLSCAASGRTFSYYAMGWYRQAPGKERELVAAISWRGGSTYYADSVKGRFTISRDNAKNTVYLQMNSLKPEDTAVYYCAALPRYALGEDYWGQGSQVTVSS,high polyreactivity
2,QVQLVESGGGLLQAGGSLRLSCAASGRTFWWNAMGWYRQAPGKERELVAVISYSGGSTYYADSVKGRFTISRDNAKNTVYLQMNSLKPEDTAVYYCAADLYSHTGYYWGQGTQVTVSS,high polyreactivity
3,QVQLVESGGGLLQAGGSLRLSCAASGSIFPQYAMGWYRPAPGKERELVAAITWSGSRTRYADSVKGRFTISRDNAKNTVYLQMNSLKPEDTAVYYCNAYWGRSGYAGGYWGQGTQVTVSS,high polyreactivity
4,QVQLVESGGGLLQAGGSLRLSCAASGSIFQYKAMGWYRQAPGKERELVAAINGGGSTYYADSVKGRFTISRDNEKNTVYLQMNSLKPEYTAVYYCAADGGAYYYRGPGKFGIEDSWGQGTQVTVSS,low polyreactivity
5,QVQLVESGGGLLQAGGSLRLSCAASGSIFYINAKGWYRQAPGKERELVAAITSDGSTYYADSVKGRFTISRDYANYTVYLQLNSLKPEYSAVYYCAADLTSDQYLYYWYWFSSWGQGTQGTVSS,low polyreactivity
6,QVQLVESGGGLLQAGGSLRLSCAASGSTFDSYAMGWYRQAPGKERELVAAITNGGSTYYADSVKGRFTISRDNAKNTVYLQMNSLKPEDTAVYYCATDDYLLDYLYDYWGQGTQVTVSS,low polyreactivity
7,QVQLVESGGGLLQAGGSLRLSCAASGSTFGHYAMGWYRQAPGKERELVAAITWSGGSTYYADSVKGRFTISGDNAKNTVYLQMKSLKPEDTAVYDCAARFGGGAARHGYWGQGTQVTVSS,high polyreactivity
8,QVQLVESGGGLLQAGGSLRLSCAASGSTLRRYAMGWDRQAPGKERELVAAISGSGDSTYYADSVKGRFTISRDNAKNTVYLQMNSLKPEDTAVYYCNAVYAFNGYDYWGQGTQVTVSS,low polyreactivity
9,QVQLVESGGGLLQAGGSLRLSCAASGYTSSRYAMGWYRQAPGKESELLAAISGTGGSTNYADSVKGRFTISRDNAKNTVYLQMNRLKPEDSAVYYCATRSFGAGYVGVRYYYWGQATQVTVSS,high polyreactivity
10,QVQLVESGGGLLQAGGSLRLSCAASVSIFSIYAMGWYRQAPGKERELVAAITLGGGSTYYADSVKGRFTISRDNAKNTVYLQMNCLTPEDTAVYYCAASSVYGYSYWGQGTQVTVSS,high polyreactivity
11,QVQLVESGGGLLQAGGSLRLSCAATGITYDYYDMGWYRQAPGKERELVAAIRWSGTSKYYADSVKGRFTISRDNANNTVYIQMNSLKTEDSAVYYCAALAVGNDYRRYGYWGQGTQVTVSS,high polyreactivity
12,QVQLVESGGGLLQAGGSLRLSCADRRTLSFYAKGCSIQAPGKERELVAAISRSGGSTYYADSEKGRFTISRDNAKNTGKLQMNRLKPEDTAVYYFAARSSGGYDYWGQGTQVTVSS,high polyreactivity
13,QVQLVESGGGLLQAGGSLRLSCADSGSTFSRYSMGWYRQAPGKEREFVAAISRSGASTYYADSVKGRFTISRDNEMNTVNLQMNSLKPEDTAVYYCNTRRWRFVKYGYWGQGTQVTVSS,high polyreactivity
14,QVQLVESGGGLLQAGGSLRLSCASSGLIFLGYTMGRYIQAPGKERELVAAISRRGGRTYYADSVKGLFTISRDNAKNTVYLLMNSLKPEDTAVYYCNADITSSGPKSDYWGQGTQVTVSS,high polyreactivity
15,QVQLVESGGGLLQAGGSLRLSCASSGRIFRWNAMGWYRQAPGKERELVAAISARGGSTYYADSVKGRFTISRDNAKNTVYLQMNSLKPEDTAVYYCAKVSSRGFDYWGQGTQVTVSS,high polyreactivity
16,QVQLVESGGGLLQAGGSLRLSSAASGLTFAAYAMGWYRQAPGKEREFVAAITSSGGSTYYADSVKGRFTISRDNAKNSVYLQMNSLKPEDTAVYYCAAYYYDHYYWGQGTQVTVSS,high polyreactivity
17,QVQLVESGGGLLQAGGSLRVSCAASGRTFLRYAMGWSIKAPGKERELVAGIDSSGGNTYYADSVKGRFTISRDTAKKYVYLQINSLKPEDTAVYYCAPRRSCKYRGGYYWGQGTQVTVSS,high polyreactivity
18,QVQLVESGGGLLQAGRSLRLTCAASGRTFRAYAMGWYRQAPGKEMELVASISRRGGSTYYADSVKGRFTISRDNAKNSVYLQMNSLKPEDTAVSYCAASDKYLQYDYWGQGSQVTVSS,high polyreactivity
19,QVQLVESGGGLLQSGGSLRLSCAASGFIFRSYAMGWYRQAPGKEREFVASISSRGGTTYYADSVKGRFTISRDNAKKTVYLQMNRLKPEDTAVYYCAADYFRWAGWGYEYWGQGSQVTVSS,high polyreactivity
20,QVQLVESGGGLQQAGGSLRLSCDASGITFRQYTMGWCRQAPGKERELVAAITSSGRTYYADSVKGRFTISRDNAKNTVYLHMNSLKPEDTAVYYCAAETYYFGYGYWGQGTQVTVSS,high polyreactivity
21,QVQLVESGGGLVEAGGRLRLSCAAYGRIFYYNGMGCYRQAPGKERELVAAITSGGSTNYADSEKGRFTISRDNAKNNVYLQMKSVKPEDTAVSYCAADYYYYVAGVHFDYWGQGTQVTVSS,low polyreactivity

row,Sequence,polyreactivity (PSR sort gate)
1,QVQLVESGGGLVEAGGSLRLSCAASASIFGLNAMGWYRQAPGKEREFVAAISWSDGSTYYADSVKGRFTISRDNAKNTVYLQMNSLKPEDTAVYYCSKATEYYAESDDYDYWGQGTQVTVSS,low polyreactivity
2,QVQLVESGGGLVEAGGSLRLSCAASGRTFSPNTMGWYRQAPGKEREFVAAITASGDSTYYADSVKGRFTISRDNAKNTVYLQMNSLKPEDTAVYYCATDSNWYWGFNYWGQGTQVTVSS,low polyreactivity
3,QVQLVESGGGLVEAGGSLRLSCAASGYIFKSYVMGWYRQAPGTERELVAAITWSGGSTYYADSVNGRFTISRDNAKNTVYLQMNSLNPEDTAVYYCAAYPRRYRTTYDYWGQGTQVTVSS,high polyreactivity
4,QVQLVESGGGLVEAGGSLRLSCDASGRIFYSNAMGWSRQAPGKERELVATITRSSGITYYADSVKGRFTISRDNAKNTVYLQMNSLKPEDTAVYYCAAPWYYYGYWGQGTQVTVSS,high polyreactivity
5,QVQLVESGGGLVHAGGCLRLSCAASGRTFAPYAMGWYRLAPGKERELVAAINSGDRTYYADSVKGRFTLSRDNAKNTVNLQINSLKPEDTSGYYCSSDALAGQYTWYKYDYWGQGSQVTVSS,low polyreactivity
6,QVQLVESGGGLVHAGGRLRLSCAASGSIFDYYAMGWSRPAPGKERELVADNTSGGSTNYADSVKGRFTISRDNAKNTVYLQMNSLKPEDTAVYYCATRIGYSDWPDGVWDLDDSEYYYWGQGTQVTVSS,low polyreactivity
7,QVQLVESGGGLVHAGGRLRLSCAASGSMFYPYAMGWYRQAPGKERELVAAISRSGGSTRYADSVKGRFTISRDHAQNTVYLQMNSLKPEDTAVYYCAVRVFYGVGLIGYYYWGQGSQVTVSS,high polyreactivity
8,QVQLVESGGGLVHAGGSHRLSCAATGRIFDANARGGYRQAPGKERELVAVISSRGGSTYYADSVKGRFTISRDNAKNTVYLQMNSLKPEDTAVYYCAKGFSVAGYDYWGQGTQVTVSS,low polyreactivity
9,QVQLVESGGGLVHAGGSIRLSCAASGRIFGYYTMGWYRQAPGKERELVAAIRGNGGSTYYADSVKGLFTISRDNAKNTVYLQMHSLKPQDTAVYYCAATDISYRRVPYGRKKQYDYWGQGTQVTVSS,high polyreactivity
10,QVQLVESGGGLVHAGGSIRLSCAASGRTFAYNDMGWYTQAPGTERELVAAISWSDGTTYYADSVKGRFTISRDNAKNPVYLQMHCLKPEDTAVYYCAAESYPSEVASYVSEYDYWGQGTQVTVSS,low polyreactivity
11,QVQLVESGGGLVHAGGSLLLSCAASGRTFRTYTMGLYRQAPGKERELVAVITWTGGSTYYADSVKGRFTISRDNAKNTVYIQMNSLKPEDTAVYYCAARIITFSNVYNGYEYWGQGTQVTVSS,high polyreactivity
12,QVQLVESGGGLVHAGGSLRLICAASGSIFQSYDMGWYRQAPGKERELVAAISWSGSTTYYADSVKGRFTISRDNAKNTVYLQMNSLKPEDTAVYYCAVDSNPPDWWAVIYGYWGQGTQVTVSS,low polyreactivity
13,QVQLVESGGGLVHAGGSLRLSCAASGFIFTKNAMGWYRQAPGKDRELVAAITSSGGNTYYADSVKGRFTISRDNAKNTVYLQMNSLKPEDTAVYYCAASRFLRMYWGQGTQVTVSS,high polyreactivity
14,QVQLVESGGGLVHAGGSLRLSCAASGFTFGYYALGWYRQAPGKERELVASISRSGGSTNYADSVKGRFTISRDNAKYTVYFQMNRLKPEDTAVYYCNKRVNTYRSGSRRYDYWGQGTQVTVSS,high polyreactivity
15,QVQLVESGGGLVHAGGSLRLSCAASGIIFRFYAMGWYRQAPAKERELVAAISSGGSTYYADSVKGRFTISRDNAKNTVYLQMIRLKPEDTAVYYCNARVRYKRTVRYGYWGQGTQVTVSS,high polyreactivity
16,QVQLVESGGGLVHAGGSLRLSCAASGLIFHHNAMGWYRQAPGKERELVAAISRSAGSTYYADSVKGRFTISRDNAKNTVYLQMNSLKPEDTAVYYCAKRPTPTSKYDTVGYGYWGQGTQVTVSS,low polyreactivity
17,QVQLVESGGGLVHAGGSLRLSCAASGNTFWPYAMGWYRQAPGKERELVAAINYSGTRTYYSDSVKGRFTISRDNAKNTVYLQMNSLKPEDTAVYYCAKATSPPGTTAGGYDYWGQGTQVTVSS,low polyreactivity
18,QVQLVESGGGLVHAGGSLRLSCAASGRIFGPYAMGWYRQAPGKERELVAAISRSGSTTYYAVSVKGRFTISRDNAKNTVYLQMNSLKPDDTAVYYCNGRRYRVVQSKPCDYWGQGTQVTVSS,high polyreactivity
19,QVQLVESGGGLVHAGGSLRLSCAASGRIFRIYAMGWYRQAPGKERELVAAISRGGRTNYADSVKGRFTISRDNAKNTVYLQMNSLKPEDTAVYYCNATSNWGPTKVRFNYWGQGTQVTVSS,high polyreactivity
20,QVQLVESGGGLVHAGGSLRLSCAASGRIFTAYAMGWYRQAPGKERELVASISTSGGRTYYADSVKGLFTISRDNAKNTVYLQMNSLIPEDTAVYYFAADFESYSRYYDGYDYWGQGTQVTVSS,high polyreactivity
